This note sets out measurements from patent US20260132200A1 (Regeneron, published 2026).

Positions count from the first letter of the chain named. Numbers in names are those of the source. Like-named read-outs stand apart in the source and are kept apart here.

Test [1] addresses T1, human CD3 expressed on cells (Jurkat, a CD3+ human T-cell line; human T cells) (human, UniProt P07766 23-126; P04234 22-100).
T1 construct: also called FACS JURKAT
T1 chain 1: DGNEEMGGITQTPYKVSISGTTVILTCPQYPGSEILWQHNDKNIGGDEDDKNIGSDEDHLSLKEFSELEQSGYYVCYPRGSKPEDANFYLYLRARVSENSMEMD
T1 chain 2: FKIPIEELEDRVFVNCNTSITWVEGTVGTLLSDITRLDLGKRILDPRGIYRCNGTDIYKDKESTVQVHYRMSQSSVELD
The test is described as follows: FACS on Jurkat cells. As for the experimental part: (§1) CD20×CD3 bispecific antibodies and Control constructs, as set forth in Example 1, were tested via FACS for their ability to bind to Jurkat (CD3+, CD20− human T-cell line), Raji (CD3−, CD20+ Human B-cell line), or cynomolgus PBMCs (“mkT cells”).
(§2) FACS data was acquired using the following protocol: Cells at 2×10⁵ per well were incubated with serially diluted antibodies for 30 min on ice. Post incubation, cells were washed and appropriate secondary (Jurkat, RAJI cells) or cocktail of secondary antibodies (for cyno PBMC) was added and incubated for an additional 30 minutes. After incubation, cells were washed, re-suspended in cold PBS containing 1% BSA and analyzed by flow cytometry on a BD FACS Canto II. Jurkat and Raji cells were gated by side and forward scatters, while cynomolgus T cells were also gated in a CD2+CD4+ population. The EC₅₀s for cell binding titration were determined using Prism software with values calculated using a 4-parameter non-linear regression analysis.

Test [2] concerns the target T2, human CD20 expressed on Raji cells (CD3-, CD20+ human B-cell line) (human, UniProt P11836 1-297).
T2 sequence: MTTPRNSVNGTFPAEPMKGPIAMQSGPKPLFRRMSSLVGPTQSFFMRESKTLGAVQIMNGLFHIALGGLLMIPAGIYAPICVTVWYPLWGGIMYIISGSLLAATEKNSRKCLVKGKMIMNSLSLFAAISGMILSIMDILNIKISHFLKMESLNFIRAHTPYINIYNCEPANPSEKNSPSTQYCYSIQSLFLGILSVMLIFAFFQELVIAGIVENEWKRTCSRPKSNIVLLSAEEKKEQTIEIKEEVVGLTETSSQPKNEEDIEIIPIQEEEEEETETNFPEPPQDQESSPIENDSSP
The test is described as follows: cell-based or functional assay.

Test [3] concerns the target T3, cynomolgus monkey CD3 on monkey T cells (CD2+CD4+ cells of cynomolgus PBMCs) (cynomolgus monkey, UniProt Q95LI5 22-198).
T3 construct: whole, on cells; also called mkT cells; monkey PBMCs
Put plainly: FACS on cynomolgus PBMCs, CD2+CD4+ T cells. On the procedure:
as §1, §2

Test [4] has as its target T4, Soluble heterodimeric CD3 protein (hCD3-epsilon/hCD3-delta) with either a human Fc tag (hFcΔAdp/hFc) or a … (human, UniProt P07766 23-126; P04234 22-100).
T4 construct: Soluble construct; not shown: Fc tag: human (hFcΔAdp/hFc)
T4 chain 1: T1 chain 1
T4 chain 2: T1 chain 2
The test is described as follows: SPR Biacore 25C antigen-capture. On the procedure:
(§3) Measurements were conducted on a T200 Biacore instrument.
In the antigen-capture format, heterodimeric CD3 protein was captured using a rabbit anti-mouse Fc or mouse anti-human Fc and the respective antibodies were injected over the captured antigen.
(§4) Kinetic association (kₐ) and dissociation (kd) rate constants were determined by processing and fitting the data to a 1:1 binding model using Scrubber 2.0 curve fitting software. Binding dissociation equilibrium constants (KD) and dissociative half-lives (t_{1/2}) were calculated from the kinetic rate constants as: KD (M)=kd/kₐ; and t_{1/2} (min) (ln 2/(60*kd). NT=not tested; NB=no binding observed.
(In general: SPR reads the build-up and loss of mass on a sensor chip optically.)

Test [5] concerns the target T4, Soluble heterodimeric CD3 protein …. The test is described as follows: SPR Biacore 25C antibody-capture. On the procedure: as §3
Heterodimeric CD3 protein was purified using the method described in Davis et al. (US2010/0331527).
as §4

For test [6], the target named is T2, human CD20 expressed on Raji cells …. The test is described as follows: FACS on Raji cells. On the procedure: as §1, §2
The target is the same in test [7]. The test is described as follows: cell-based or functional assay. The source holds these as a separate data set.
In test [8] the target is T1, human CD3 expressed on cells (Jurkat, a …). The test is described as follows: cell-based or functional assay.
Test [9] addresses T2, human CD20 expressed on Raji cells …. Put plainly: cell-based or functional assay. This is another data set of the same source.
Test [10] has as its target T1, human CD3 expressed on cells (Jurkat, a …). Put plainly: FACS on Jurkat cells. On the procedure: Binding was assessed using Jurkat cells (a CD3+ human T-cell line), while proliferation of Peripheral Blood Mononuclear Cells (PBMC) was assessed using ATP catalyzed quantification (CellTiter Glo®).
FACS data was acquired using the following protocol: Cells at 2×10⁵ per well were incubated with serially diluted antibodies for 30 min on ice. Post incubation, cells were washed and secondary antibody was added and incubated for an additional 30 minutes. After incubation, cells were washed, re-suspended in cold PBS containing 1% BSA and analyzed by flow cytometry with viable Jurkat cells gated by side and forward scatters. The EC₅₀s for cell binding titration were determined using Prism software with values calculated using a 4-parameter non-linear regression analysis.

Test [11] has the same target. The test is described as follows: cell-based or functional assay.

T3 sequence (Q95LI5 22-198): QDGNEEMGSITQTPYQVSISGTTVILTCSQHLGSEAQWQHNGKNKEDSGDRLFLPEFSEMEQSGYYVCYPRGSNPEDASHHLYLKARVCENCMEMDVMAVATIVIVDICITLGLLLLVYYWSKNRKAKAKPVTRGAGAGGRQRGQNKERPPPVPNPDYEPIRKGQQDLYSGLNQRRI

B1: Control IV: monoclonal anti-CD20 antibody 3B9-10 (antibody, V domains shown)
VH: EVQLVESGGGLVQPGRSLRLSCVASGFTFNDYAMHWVRQAPGKGLEWVSVISWNSDSIGYADSVKGRFTISRDNAKNSLYLQMHSLRAEDTALYYCAKDNHYGSGSYYYYQYGMDVWGQGTTVTVSS
VL: EIVMTQSPATLSVSPGERATLSCRASQSVSSNLAWYQQKPGQAPRLLIYGTSTRATGIPARFSGSGSGTEFTLTISSLQSEDFAVYYCQQYNNWPLTFGGGTKVEIK
notes: also called Control IV (anti-CD20)
Turning to B1, in test [1], the binding result is recorded as “no binding”. Also, in test [2], the “CDC EC50, Raji” value amounted to 247 pM; the “CDC EC50, Raji SCID1” value stood at 51900 pM; the “CDC EC50, Raji SCID2” value is 229 pM; the “CDC EC50, Raji SCID3” value was determined as 5710 pM. In test [2], the “CDC EC50, Raji SCID4” value came to 1140 pM. Further, the binding result in [3] is recorded as “no binding”.

B2: H2M2776N (antibody, V domains shown)
VH: QVQLVESGGGVVQPGRSLRLSCAASGFTFRSFGMHWVRQAPGRGLEWVAMIYFDGKNKYYADSVRGRFTISRDNSKNTLYLEMSSLRAEDTAVYFCARGPGYNWLDPWGQGTLVTVSS
VL: B1 VL with A19V, T20I, V29I, S31R, T51A, S52T, I58V, Y86F, W94R, K103E
notes: mouse IgG2 Fc, human variable regions
Broadly, the Kd is the constant that tells how readily two partners part at equilibrium. As usually defined, the koff is the rate constant with which the complex falls apart. In general, kon refers to the rate constant with which the complex forms. Regarding B2, in [4], the dissociation constant Kd was determined as 140 pM, the “T½” value is 52 min, the koff is 0.000222 s⁻¹ and the on-rate (kon) turned out to be 1.58e+06 M⁻¹ s⁻¹. Besides, in [5], the Kd came to 10200 pM, the koff worked out at 0.000639 s⁻¹ and the kon came to 62900 M⁻¹ s⁻¹.

B3: BS3/20-001 (bispecific antibody, V domains shown)
VH 1: B1 VH
VH 2: EVQLVESGGGLVQPGRSLRLSCAASGFTFDDYTMHWVRQAPGKGLEWVSGISWNSGSIGYADSVKGRFTISRDNAKKSLYLQMNSLRAEDTALYYCAKDNSGYGHYYYGMDVWGQGTTVTVAS
VL: AEIVMTQSPATLSVSPGERATLSCRASQSVSSNLAWYQQKPGQAPRLLIYGASTRATGIPARFSGSGSGTEFTLTISSLQSEDFAVYYCQHYINWPLTFGGGTKVEIK
notes: also called CD3×CD20 bispecific antibody
The EC50 is the concentration needed to bring the measured effect to its halfway point. For B3, it took 59900 pM to reach a half-maximal effect in [6] (EC50). The midpoint of the response in [1], the EC50, lay at 38500 pM. Besides, in test [7], the “CD25 upregulation on CD8+ T-cells, PBMC + Raji, EC50” value was 1.35 pM and the “CD25 upregulation on CD8+ T-cells, PBMC, EC50” value turned out to be 112 pM. Moreover, the “U937 Cytotoxicity Human T-cells [M] (EC50)” value in test [8] amounted to 8.86e-11 M. In test [9], the “Raji Cytotoxicity Human T-cells [M] (EC50)” value came to 5.63e-11 M and the “Raji Cytotoxicity Monkey T-cells [M] (EC50)” value came out at 1.27e-12 M.

B4: H2M2709N (antibody, mouse IgG2, V domains shown)
VH: B2 VH
VL: B1 VL with A19V, V29I, S31R, T51A, I58V, Y86F, Y87H, W94R, K103E
notes: mouse IgG2 Fc (H2M), human variable regions
In test [10], B4 had an EC50 of 711 pM. Also, in [11], the “U937 Cytotoxicity Human T-cells [M] (EC50)” value was determined as 3.47e-12 M.

B5: BS3/20-003 (bispecific antibody, V domains shown)
VH 1: B1 VH
VH 2: B3 VH 2
VL: B1 VL with T51A, Q90H, N92I
Turning to B5, it took 92400 pM to reach a half-maximal effect in test [6] (EC50). In [1], the midpoint of the response, the EC50, lay at 56700 pM. Moreover, in [7], the “CD25 upregulation on CD8+ T-cells, PBMC + Raji, EC50” value came to 0.338 pM and the “CD25 upregulation on CD8+ T-cells, PBMC, EC50” value was 365 pM. The “U937 Cytotoxicity Human T-cells [M] (EC50)” value in test [8] turned out to be 8.1e-11 M. In test [9], the “Raji Cytotoxicity Human T-cells [M] (EC50)” value was 7.38e-11 M and the “Raji Cytotoxicity Monkey T-cells [M] (EC50)” value amounted to 4.36e-14 M.

B6: H2M2704N (antibody, mouse IgG2, V domains shown)
VH: B2 VH with A23G, F32Y, A40T, F53Y, K56N, I70V, E82Q, V93L
VL: B1 VL with V29I, S31R, T51A, W94R, K103E
notes: as for B4
In test [10], B6 came in with an EC50 of 845 pM. The “U937 Cytotoxicity Human T-cells [M] (EC50)” value in test [11] amounted to 2.49e-12 M.

B7: H2M2776N (antibody, mouse IgG2, V domains shown)
VH: B2 VH
VL: B1 VL with A19V, T20I, V29I, S31R, T51A, S52T, I58V, Y86F, W94R, K103E
notes: as for B4
In turn, B7 displayed an EC50 in test [10] of 491 pM. Moreover, in test [11], the “U937 Cytotoxicity Human T-cells [M] (EC50)” value was 4.06e-12 M.
